Measurements taken from PMC10866937, “Aptamers targeting SARS-CoV-2 nucleocapsid protein exhibit potential anti pan-coronavirus activity”.
Where two headings read alike, the source gives them in different places.

Assays:
[1] = molecular target: MERS-CoV nucleocapsid protein (MERS NP) (MERS-CoV, UniProt K9N4V7 1-411); conditions: protein: commercial
[2] = molecular target: HCoV-OC43 nucleocapsid protein (HCoV-OC43, UniProt P33469 1-448); test: CE; Kd range for six aptamers 6.57-31.76 nM; conditions: protein: recombinant
[3] = molecular target: SARS-CoV-2 nucleocapsid protein (NP) (SARS-CoV-2 (WT), UniProt P0DTC9 1-419); test: CE; conditions: protein: commercial
[4] = molecular target: SARS-CoV nucleocapsid protein (SARS NP) (SARS-CoV, UniProt P59595 1-422); conditions: protein: commercial
[5] = label: 5'-FAM in CE (position not restated for aptamers)

Measured: binding result

CACCTCTCACCCCACGGTTCTGGTCCTTCCCCGACG (ssDNA) [Seq-1280]
binds: [1]; label: FAM in CE | [2]; label: FAM in CE | [3]; label: FAM in CE | [4]; label: FAM in CE

ACTCCCACCTTTATTGAGGGCGGTGACGGGTTCCCTC (ssDNA) [Seq-59]
binds: [1]; label: FAM in CE | [2]; label: FAM in CE | [3]; label: FAM in CE | [4]; label: FAM in CE

AGGGGGGACACCTAGATTGTTGGCCGTGCGGATACG (ssDNA) [Seq-333]
binds: [1]; label: FAM in CE | [2]; label: FAM in CE | [3]; label: FAM in CE | [4]; label: FAM in CE

AGGGGGGACATCTGGAGTGTTGGCCGTGCGGATACG (ssDNA) [Seq-1022]
binds: [1]; label: FAM in CE | [2]; label: FAM in CE | [3]; label: FAM in CE | [4]; label: FAM in CE

TCCACGGTCGGTCCCCTTACCACTGGTCCCTTTGTC (ssDNA) [Seq-4650]
binds: [1]; label: FAM in CE | [2]; label: FAM in CE | [3]; label: FAM in CE | [4]; label: FAM in CE

GCAGGCAAGGCTCTACTGACCCGTTGCTTGATCGAC (ssDNA) [Seq-7]
binds: [1]; [5] | [2]; [5] | [3]; [5] | [4]; [5]
